Source: paper PMC6509336, “Wnt5a is a TLR2/4-ligand that induces tolerance in human myeloid cells” (Communications Biology, 2019)

Tests used:
Assay in all cases: SPR; Biacore 3000, CM5 chip; rhTLR2, rhTLR4/MD2 and rhTLR4 amine-coupled (4.0, 4.7, 4.0 kRU); Wnt5a or Wnt3a injected at 25-100 nM for 2 min at 30 ul/min in HBS-P (10 mM HEPES, 0.15 M NaCl, 0.005% P20, pH 7.4) with ZnCl2 and CaCl2; Req from a 1:1 fit plotted against concentration and fit to a one-site hyperbola (steady-state KD)
Settings in all cases: both partners purified
[1] = biological target: T1, rhTLR4 (human, UniProt O00206 24-631)
T1 construct: toll-like receptor 4, recombinant human protein from R&D Systems; No catalogue number or construct limits are printed; also called rhTLR4-his; source: bought: R&D Systems

[2] = biological target: T2, rhTLR4/MD2 (human, UniProt O00206 24-631; Q9Y6Y9 19-160)
T2 construct: toll-like receptor 4 in the recombinant human TLR4/MD2 complex from R&D Systems; MD2 (lymphocyte antigen 96) in the recombinant human TLR4/MD2 complex from R&D Systems; Bought as a preformed complex; No catalogue number, tags or construct limits are printed; source: bought: R&D Systems

[3] = biological target: T3, rhTLR2 (human, UniProt O60603 21-588)
T3 construct: toll-like receptor 2, recombinant human protein from R&D Systems; No catalogue number, tags or construct limits are printed; source: bought: R&D Systems
T3 sequence (O60603 21-588): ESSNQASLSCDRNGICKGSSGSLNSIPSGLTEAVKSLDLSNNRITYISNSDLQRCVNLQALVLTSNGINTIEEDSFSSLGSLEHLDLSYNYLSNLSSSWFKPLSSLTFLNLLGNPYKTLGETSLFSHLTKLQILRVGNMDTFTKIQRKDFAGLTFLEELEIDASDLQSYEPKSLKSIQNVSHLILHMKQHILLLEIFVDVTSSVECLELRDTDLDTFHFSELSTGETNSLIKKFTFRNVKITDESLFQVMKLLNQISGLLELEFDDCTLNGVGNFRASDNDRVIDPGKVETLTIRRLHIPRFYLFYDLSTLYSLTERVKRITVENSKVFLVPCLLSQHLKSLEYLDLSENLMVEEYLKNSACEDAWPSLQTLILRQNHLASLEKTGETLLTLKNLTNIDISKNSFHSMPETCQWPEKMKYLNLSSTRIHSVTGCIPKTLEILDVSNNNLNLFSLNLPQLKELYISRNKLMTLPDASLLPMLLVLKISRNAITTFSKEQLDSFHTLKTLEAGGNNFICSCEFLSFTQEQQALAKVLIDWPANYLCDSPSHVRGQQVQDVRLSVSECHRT

T2 sequence (O00206 24-631, chain 1 of 2): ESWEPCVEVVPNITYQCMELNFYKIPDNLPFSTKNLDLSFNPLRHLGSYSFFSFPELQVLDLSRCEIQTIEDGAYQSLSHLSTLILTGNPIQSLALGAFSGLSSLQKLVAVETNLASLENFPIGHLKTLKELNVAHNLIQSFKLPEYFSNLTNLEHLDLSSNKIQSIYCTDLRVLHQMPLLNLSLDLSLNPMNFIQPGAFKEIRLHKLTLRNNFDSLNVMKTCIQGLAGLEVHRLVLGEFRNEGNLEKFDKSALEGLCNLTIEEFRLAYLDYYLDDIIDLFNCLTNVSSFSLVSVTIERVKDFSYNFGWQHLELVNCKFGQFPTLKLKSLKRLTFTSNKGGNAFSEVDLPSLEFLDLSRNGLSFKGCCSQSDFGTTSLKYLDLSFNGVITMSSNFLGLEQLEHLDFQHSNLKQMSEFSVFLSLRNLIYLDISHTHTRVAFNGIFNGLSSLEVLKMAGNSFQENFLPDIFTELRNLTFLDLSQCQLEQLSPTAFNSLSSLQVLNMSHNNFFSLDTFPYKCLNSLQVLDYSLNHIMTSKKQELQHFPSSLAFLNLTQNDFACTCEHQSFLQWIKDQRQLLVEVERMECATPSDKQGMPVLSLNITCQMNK
T2 sequence (Q9Y6Y9 19-160, chain 2 of 2): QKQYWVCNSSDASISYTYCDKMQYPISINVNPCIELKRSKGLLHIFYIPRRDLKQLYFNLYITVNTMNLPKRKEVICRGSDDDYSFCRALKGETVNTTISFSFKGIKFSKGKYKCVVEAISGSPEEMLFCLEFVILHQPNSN
T1 sequence (O00206 24-631): as the sequence (O00206 24-631, chain 1 of 2) above

B1: recombinant human/mouse (rh/m)Wnt5a (ligand, UniProt P41221 62-380, looked up)
chain: IIGAQPLCSQLAGLSQGQKKLCHLYQDHMQYIGEGAKTGIKECQYQFRHRRWNCSTVDNTSVFGRVMQIGSRETAFTYAVSAAGVVNAMSRACREGELSTCGCSRAARPKDLPRDWLWGGCGDNIDYGYRFAKEFVDARERERIHAKGSYESARILMNLHNNEAGRRTVYNLADVACKCHGVSGSCSLKTCWLQLADFRKVGDALKEKYDSAAAMRLNSRGKLVQVNSRFNSPTTQDLVYIDPSPDYCVRNESTGSLGTQGRLCNKTSEGMDGCELMCCGRGYDQFKTVQTERCHCKFHWCCYVKCKKCTEIVDQFVCK
notes: Wnt5a, recombinant human/mouse protein from R&D Systems, molecular weight 38,000; Lyophilized from PBS, EDTA and CHAPS; No catalogue number is printed; also called rWnt5a; source: bought: R&D Systems
In the case of B1, the Kd [1] is reported as 44.5 nM, the Kd [2] is reported as 35.5 nM and the Kd [3] is reported as 26.5 nM.
